Data reported in article doi:10.1101/2021.09.29.462438.

Target: N-terminal soluble domain of Bacteroides fragilis FeoAB fusion protein (BfNFeoAB) (Bacteroides fragilis)
Experiment: SEC

## N-terminal soluble domain of Bacteroides fragilis FeoAB fusion protein (BfNFeoAB) (domain or fragment)
  stoichiometry N: 3
